Test results published in paper PMC8111768 (Immunity, 2021).

Tests used:
Experiment in all cases: BLI
[1] = target: VIC16 REFORMab SDIEALGA (G236A/S239D/A330L/I332E) (mouse | human)
[2] = target: VIC16 REFORMab EFTEA (G236A/S267E/H268F/S324T/I332E) (mouse | human)
[3] = target: VIC16 REFORMab KWES (printed K236W/E333S) (mouse | human)
[4] = target: VIC16 REFORMab LALA (L234A/L235A) (mouse | human)

Row | Binder | Kd [1] | Kd [2] | Kd [3] | Kd [4]
1 | recombinant murine FcγRIIb (receptor, soluble ectodomain by convention (UniProt topology); tag not stated) THDLPKAVVKLEPPWIQVLKEDTVTLTCEGTHNPGNSSTQWFHNGRSIRSQVQASYTFKATVNDSGEYRCQMEQTRLSDPVDLGVISDWLLLQTPQLVFLEGETITLRCHSWRNKLLNRISFFHNEKSVRYHHYSSNFSIPKANHSHSGDYYCKGSLGRTLHQSKPVTITVQGPKSSRSLP | 130 nM | 490 nM | 46000 nM | 
2 | recombinant murine FcγRIII (receptor, soluble ectodomain by convention (UniProt topology); tag not stated) ALPKAVVKLDPPWIQVLKEDMVTLMCEGTHNPGNSSTQWFHNGRSIRSQVQASYTFKATVNDSGEYRCQMEQTRLSDPVDLGVISDWLLLQTPQRVFLEGETITLRCHSWRNKLLNRISFFHNEKSVRYHHYKSNFSIPKANHSHSGDYYCKGSLGSTQHQSKPVTITVQDPATTSSISLVWYHT | 10 nM | 1100 nM | 20 nM | 820 µM
3 | recombinant murine FcγRIV (receptor, soluble ectodomain by convention (UniProt topology); tag not stated) GLQKAVVNLDPKWVRVLEEDSVTLRCQGTFSPEDNSIKWFHNESLIPHQDANYVIQSARVKDSGMYRCQTALSTISDPVQLEVHMGWLLLQTTKWLFQEGDPIHLRCHSWQNRPVRKVTYLQNGKGKKYFHENSELLIPKATHNDSGSYFCRGLIGHNNKSSASFRISLGDPGSPSMFPPWHQ | 1 nM | 120 nM | 160 nM | 
